In patent US20230174599A1 (University of California, published 2023):
Several values for one entry are separate records, joined by “and”; a condition that tells them apart may be missing. Identical values can stand only once. Like-named read-outs stand apart in the source and are kept apart here.

B1: RiAFP-HTH.2 (designed binder)
chain: ASRAEARGEAMAEGHSRGSATSHANATGHADARSMSEGNAEAYTEAKGDAMATSEASGEARAQTNADGSAHSSSRTHGRADSTASAKGGKALNDKEAKNKAILNLEEIEEQAKTFLDKFNHEAEDLFYQSSLASWNYNTNITEENVQNMNNAGDKWSAFLKEQSTLAQMYQNEIKRKSEKQEDLKKEMLELEKLGGAMAEGTSDGDAKSYASADGNASAKSMSTGHADATTNAHGTAMADSNAIGEARAETRAEGRAESSSDTDGS
notes: also called mBSP-HTH.2; RiAFP-.2
B2: RiAFP-HTH.1 (designed binder)
chain: ASRAEARGEAMAEGHSRGSATSHANATGHADARSMSEGNAEAYTEAKGDAMATSEASGEARAQTNADGSAHSSSRTHGRADSTASAKTNYNRECGEEQAKTFLDKFNHEAEDLFYQSSLASWNYNTNITEENVQNRNNAGDKRSAFLKEQSTLAQMYGCGSGSAMAEGTSDGDAKSYASADGNASAKSMSTGHADATTNAHGTAMADSNAIGEARAETRAEGRAESSSDTDGS
notes: also called mBSP-HTH.1; RiAFP-HTH.1 construct
B3: polymeric RiAFP-HTH.2 fixed to nitrocellulose (designed binder)
chain: B1 chain

Assays:
SARS-CoV-2 Spike RBD [1] = biological target: T1, SARS-CoV-2 Spike RBD (SARS-CoV-2, UniProt P0DTC2 319-541)
SARS-CoV-2 Spike RBD [2] = biological target: T1, SARS-CoV-2 Spike RBD
SARS-CoV-2 Spike RBD [3] = biological target: T1, SARS-CoV-2 Spike RBD; remark: listed apart in the source
SARS-CoV-2 Spike RBD [4] = biological target: T1, SARS-CoV-2 Spike RBD; remark: listed apart in the source

Binder | Kd (SARS-CoV-2 Spike RBD [1]) | Kd (SARS-CoV-2 Spike RBD [2]) [nM] | Kd (SARS-CoV-2 Spike RBD [3]) [nM] | Kd (SARS-CoV-2 Spike RBD [4]) | koff (SARS-CoV-2 Spike RBD [4]) [s⁻¹]
B1 | ≥ 41 nM and ≤ 84 nM and 28 nM | 2.1 to 28 | 2.1 |  | 
B2 |  | 0.7 to 1.6 |  |  | 
B3 |  |  |  | 0.006 to 0.009 nM and ≤ 0.01 nM | 6e-07 to 9e-07
